Consider 4 molecules from patent publication US20170015742A1 (published 2017).

In assay [1] the target is VEGF-A (UniProt P15692-4 27-191, limits assumed). In words: SPR (Biacore), DVD-Ig captured by anti-human Fc, antigen in flow. As to the method:
(§1) For example, approximately 9000 RU of goat anti-human Fc specific polyclonal antibody (Thermo Fisher Scientific Inc., Rockford, Ill.) diluted in 10 mM sodium acetate (pH 4.5) is directly immobilized across a CM5 research grade biosensor chip using a standard amine coupling kit according to manufacturer's instructions and procedures at 25 μg/ml. Unreacted moieties on the biosensor surface were blocked with ethanolamine. For kinetic analysis, rate equations derived from the 1:1 Langmuir binding model were fitted simultaneously to multiple antigen injections (using global fit analysis) with the use of Scrubber 2 (BioLogic Software), Biacore Biaevaluation 4.0.1 software or Biacore T100 Evaluation software. Purified antibodies or DVD-Ig molecules were diluted in running buffer for capture across goat anti-human Fc reaction surfaces. Antibodies or DVD-Ig molecules to be captured as a ligand (1 μg/ml) were injected over reaction matrices at a flow rate of 10 μl/minute. During the assay, all measurements were referenced against the capture surface alone (i.e., with no captured antibody or DVD-Ig molecule). […] The equilibrium dissociation constant KD (M) of the reaction between antibodies and the target antigen was then calculated from the kinetic rate constants by the following formula: KD=Koff/Kₒₙ. Binding was recorded as a function of time and kinetic rate constants were calculated.
In general terms: SPR reads the build-up and loss of mass on a sensor chip optically.

Assay [2] addresses PDGF-BB (UniProt P01127 82-190). The description is as above. As to the method: as §1
Assay [3] has as its target T1, VEGF-A (human, UniProt P15692 207-395).
T1 construct: also called hVEGF165
In words: Biacore SPR; DVD-Ig captured on anti-human Fc, antigen injected. An outline of the steps: (§2)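 Antibodies or DVD-Ig molecules (1 μg/ml) were captured on an anti-human Fc CM5 surface, with antigen injected in solution and responses referenced to the capture-only surface. Rate constants came from a global 1:1 Langmuir fit, and KD = koff/kon.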

Assay [4] addresses T2, PDGF-BB (human, UniProt P01127 82-190, limits assumed).
T2 construct: also called human PDGF-BB; hPDGF-BB
The assay is described as above. The essentials:
as §2

Chain of VEGF-A (UniProt P15692-4 27-191, limits assumed) (P15692 other isoform, or with tags, fused parts or gaps limits assumed): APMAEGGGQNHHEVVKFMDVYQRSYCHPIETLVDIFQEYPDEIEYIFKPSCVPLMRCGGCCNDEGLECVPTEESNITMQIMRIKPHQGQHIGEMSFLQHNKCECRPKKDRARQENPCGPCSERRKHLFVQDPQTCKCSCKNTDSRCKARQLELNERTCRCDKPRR
Chain of PDGF-BB (UniProt P01127 82-190) (P01127 82-190): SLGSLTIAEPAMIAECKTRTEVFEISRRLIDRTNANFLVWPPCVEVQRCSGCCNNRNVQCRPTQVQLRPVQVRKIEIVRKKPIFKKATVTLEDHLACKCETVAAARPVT
T1 sequence (P15692 other isoform, or with tags, fused parts or gaps limits assumed): as the sequence (P15692 other isoform, or with tags, fused parts or gaps limits assumed) above
T2 sequence (P01127 82-190 limits assumed): as the sequence (P01127 82-190) above

B1: 9E8.4-SL-4G8.3 (PR-1563998) (bispecific antibody, human IgG1, kappa, L234A L235A)
heavy: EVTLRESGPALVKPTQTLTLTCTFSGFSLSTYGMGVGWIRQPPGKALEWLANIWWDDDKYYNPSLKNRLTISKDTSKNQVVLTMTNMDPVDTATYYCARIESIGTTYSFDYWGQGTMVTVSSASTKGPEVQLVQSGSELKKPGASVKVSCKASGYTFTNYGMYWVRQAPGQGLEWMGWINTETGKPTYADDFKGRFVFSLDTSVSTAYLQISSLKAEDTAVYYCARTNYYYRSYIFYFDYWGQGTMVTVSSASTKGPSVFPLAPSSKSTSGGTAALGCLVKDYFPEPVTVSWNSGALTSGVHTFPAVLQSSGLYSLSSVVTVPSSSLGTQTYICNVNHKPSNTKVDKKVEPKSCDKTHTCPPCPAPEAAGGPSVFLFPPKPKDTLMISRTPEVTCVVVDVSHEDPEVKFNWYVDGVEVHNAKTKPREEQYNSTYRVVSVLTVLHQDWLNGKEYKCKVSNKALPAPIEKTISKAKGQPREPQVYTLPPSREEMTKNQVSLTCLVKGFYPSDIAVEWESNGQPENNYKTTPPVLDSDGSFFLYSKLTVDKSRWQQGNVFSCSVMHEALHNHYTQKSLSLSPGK
light: EFVLTQSPGTLSLSPGERATLSCERSSGDIGDSYVSWYQQKPGQAPRLVIYADDQRPSGIPDRFSGSGSGTDFTLTISRLEPEDFAVYYCQSYDINIDIVFGGGTKVEIKGTVAAPSVFIFPPDTVLTQSPATLSLSPGERATLSCRASESVSTHMHWYQQKPGQAPRLLIYGASNLESGVPARFSGSGSGTDFTLTISSLEPEDFAVYFCQQSWNDPFTFGQGTKLEIKRTVAAPSVFIFPPSDEQLKSGTASVVCLLNNFYPREAKVQWKVDNALQSGNSQESVTEQDSKDSTYSLSSTLTLSKADYEKHKVYACEVTHQGLSSPVTKSFNRGEC
notes: DVD-Ig; outer hBDI-9E8.4 (PDGF), linkers HG-short/LK-long, inner hBDB-4G8.3 (VEGF); human IgG1 L234A, L235A / kappa
In the case of B1, in assay [1], the Kd was determined as 0.12 nM and the on-rate constant (kon) stood at 700000 M⁻¹ s⁻¹. In assay [2], this molecule had a Kd of 0.019 nM and a kon of 1e+07 M⁻¹ s⁻¹.

B2: 9E8.4-GS-4G8.3 (PR-1563988) (bispecific antibody, human IgG1, kappa, L234A L235A)
heavy: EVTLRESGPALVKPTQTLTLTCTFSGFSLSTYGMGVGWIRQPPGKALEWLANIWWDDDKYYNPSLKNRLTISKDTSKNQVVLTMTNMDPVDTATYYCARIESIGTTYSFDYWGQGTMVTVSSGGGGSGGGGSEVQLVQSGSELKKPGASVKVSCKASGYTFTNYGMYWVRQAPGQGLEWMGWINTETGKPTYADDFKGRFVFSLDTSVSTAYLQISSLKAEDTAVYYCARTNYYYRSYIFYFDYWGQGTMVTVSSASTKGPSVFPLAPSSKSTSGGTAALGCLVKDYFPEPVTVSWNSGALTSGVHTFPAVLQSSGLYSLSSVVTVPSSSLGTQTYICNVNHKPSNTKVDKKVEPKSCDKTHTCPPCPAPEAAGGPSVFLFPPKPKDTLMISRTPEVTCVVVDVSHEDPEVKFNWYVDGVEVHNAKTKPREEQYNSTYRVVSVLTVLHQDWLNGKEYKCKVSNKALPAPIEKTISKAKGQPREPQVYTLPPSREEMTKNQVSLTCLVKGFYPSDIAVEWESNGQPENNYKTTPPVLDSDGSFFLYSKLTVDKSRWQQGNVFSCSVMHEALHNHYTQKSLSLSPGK
light: EFVLTQSPGTLSLSPGERATLSCERSSGDIGDSYVSWYQQKPGQAPRLVIYADDQRPSGIPDRFSGSGSGTDFTLTISRLEPEDFAVYYCQSYDINIDIVFGGGTKVEIKGGGSGGGGSGDTVLTQSPATLSLSPGERATLSCRASESVSTHMHWYQQKPGQAPRLLIYGASNLESGVPARFSGSGSGTDFTLTISSLEPEDFAVYFCQQSWNDPFTFGQGTKLEIKRTVAAPSVFIFPPSDEQLKSGTASVVCLLNNFYPREAKVQWKVDNALQSGNSQESVTEQDSKDSTYSLSSTLTLSKADYEKHKVYACEVTHQGLSSPVTKSFNRGEC
notes: DVD-Ig; outer hBDI-9E8.4 (PDGF), linkers GS-H10/GS-L10, inner hBDB-4G8.3 (VEGF); human IgG1 L234A, L235A / kappa
In assay [1], B2 gave a Kd of 0.29 nM and a kon of 220000 M⁻¹ s⁻¹. In assay [2], binding was put at a Kd of 0.02 nM and the association rate constant (kon) is 1e+07 M⁻¹ s⁻¹.

B3: 4G8.5_GS_3E2.1 (PR-1610560) (bispecific antibody, human IgG1, kappa, L234A L235A)
heavy: EIQLVQSGSELKKPGASVKVSCKASGYTFTNYGMYWVRQAPGQGLEYMGWINTETGKPTYADDFKGRFVFSLDTSVSTAYLQISSLKAEDTAVYFCARTNYYYRSYIFYFDYWGQGTMVTVSSGGGGSGGGGSEVQLVQSGAEVKKPGSSVKVSCKASGYTFTESYMYWVKQAPGQGLELIGRIDPEDGSTDYVEKFKNKATLTADKSTSTAYMELSSLRSEDTAVYFCARFGARSYFYPMDAWGQGTTVTVSSASTKGPSVFPLAPSSKSTSGGTAALGCLVKDYFPEPVTVSWNSGALTSGVHTFPAVLQSSGLYSLSSVVTVPSSSLGTQTYICNVNHKPSNTKVDKKVEPKSCDKTHTCPPCPAPEAAGGPSVFLFPPKPKDTLMISRTPEVTCVVVDVSHEDPEVKFNWYVDGVEVHNAKTKPREEQYNSTYRVVSVLTVLHQDWLNGKEYKCKVSNKALPAPIEKTISKAKGQPREPQVYTLPPSREEMTKNQVSLTCLVKGFYPSDIAVEWESNGQPENNYKTTPPVLDSDGSFFLYSKLTVDKSRWQQGNVFSCSVMHEALHNAYTQKSLSLSPGK
light: ATQLTQSPSLSASVGDRVTITCRASESVSTHMHWYQQKPGKQPKLLIYGASNLESGVPSRFSGSGSGTDFTLTISSLQPEDFATYFCQQSWNDPFTFGQGTKLEIKGGSGGGGSGGETVLTQSPATLSLSPGERATLSCRASESVSTLMHWYQQKPGQQPRLLIYGASNLESGVPARFSGSGSGTDFTLTISSLEPEDFAVYFCQQSWNDPWTFGGGTKVEIKRTVAAPSVFIFPPSDEQLKSGTASVVCLLNNFYPREAKVQWKVDNALQSGNSQESVTEQDSKDSTYSLSSTLTLSKADYEKHKVYACEVTHQGLSSPVTKSFNRGEC
notes: DVD-Ig: outer hBDB-4G8.5 (VEGF), inner hBFU-3E2.1 (PDGF), linkers GS-H10/GS-L10(dR); Human IgG1 L234A, L235A, H435A with kappa
In assay [3], B3 displayed a Kd of 0.0087 nM and a kon of 4.8e+06 M⁻¹ s⁻¹. In assay [4], this molecule had a Kd of 0.013 nM and a kon of 4.1e+07 M⁻¹ s⁻¹.

B4: 9E8.4-SS-4G8.3 (PR-1563990) (bispecific antibody, human IgG1, kappa, L234A L235A)
heavy: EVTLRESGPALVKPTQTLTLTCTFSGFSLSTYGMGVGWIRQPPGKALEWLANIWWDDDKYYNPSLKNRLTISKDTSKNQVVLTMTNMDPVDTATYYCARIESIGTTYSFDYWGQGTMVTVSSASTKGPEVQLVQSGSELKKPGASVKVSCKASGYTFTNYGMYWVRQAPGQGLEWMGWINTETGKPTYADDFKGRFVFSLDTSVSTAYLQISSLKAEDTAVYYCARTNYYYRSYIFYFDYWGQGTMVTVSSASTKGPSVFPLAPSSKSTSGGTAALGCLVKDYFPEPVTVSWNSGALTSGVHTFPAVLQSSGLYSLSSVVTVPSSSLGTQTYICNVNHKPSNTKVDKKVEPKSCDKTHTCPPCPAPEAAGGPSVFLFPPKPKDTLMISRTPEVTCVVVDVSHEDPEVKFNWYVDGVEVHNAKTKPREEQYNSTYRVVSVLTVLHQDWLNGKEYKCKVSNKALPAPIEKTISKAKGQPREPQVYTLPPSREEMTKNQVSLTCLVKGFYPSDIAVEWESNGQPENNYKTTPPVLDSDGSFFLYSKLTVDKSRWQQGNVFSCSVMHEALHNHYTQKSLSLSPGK
light: EFVLTQSPGTLSLSPGERATLSCERSSGDIGDSYVSWYQQKPGQAPRLVIYADDQRPSGIPDRFSGSGSGTDFTLTISRLEPEDFAVYYCQSYDINIDIVFGGGTKVEIKGTVAAPDTVLTQSPATLSLSPGERATLSCRASESVSTHMHWYQQKPGQAPRLLIYGASNLESGVPARFSGSGSGTDFTLTISSLEPEDFAVYFCQQSWNDPFTFGQGTKLEIKRTVAAPSVFIFPPSDEQLKSGTASVVCLLNNFYPREAKVQWKVDNALQSGNSQESVTEQDSKDSTYSLSSTLTLSKADYEKHKVYACEVTHQGLSSPVTKSFNRGEC
notes: DVD-Ig; outer hBDI-9E8.4 (PDGF), linkers HG-short/LK-short, inner hBDB-4G8.3 (VEGF); human IgG1 L234A, L235A / kappa
As to B4, the Kd was found to be 0.78 nM in assay [1] and 0.02 nM in assay [2]. In addition, the kon in assay [1] is 160000 M⁻¹ s⁻¹; in assay [2], 1e+07 M⁻¹ s⁻¹.

As a reminder, the Kd is the constant that tells how readily two partners part at equilibrium. Higher therefore signals lower affinity. In general, kon refers to a measure of how fast the partners come together. A higher kon goes with fast association.
